We go through 46 molecules from PMC9352680, “A comprehensive thermodynamic model for RNA binding by the Saccharomyces cerevisiae Pumilio protein PUF4”.

As a reminder, the Kd is the concentration at which binding is half-saturated. A low value points to tighter binding.

This series has as its target T1, PUF4 RNA-binding domain (Saccharomyces cerevisiae, UniProt P25339 537-888).
T1 sequence: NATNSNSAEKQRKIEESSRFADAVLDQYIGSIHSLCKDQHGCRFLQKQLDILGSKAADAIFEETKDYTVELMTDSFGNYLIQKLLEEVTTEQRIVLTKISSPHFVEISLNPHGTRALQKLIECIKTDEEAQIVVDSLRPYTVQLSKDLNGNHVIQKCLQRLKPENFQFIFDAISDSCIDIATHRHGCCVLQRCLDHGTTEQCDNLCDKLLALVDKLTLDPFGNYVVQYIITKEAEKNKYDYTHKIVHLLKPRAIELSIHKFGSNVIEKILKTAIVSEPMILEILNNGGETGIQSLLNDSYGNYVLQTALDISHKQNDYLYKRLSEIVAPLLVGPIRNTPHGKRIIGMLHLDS
In words: Mg; RNA-MaP; 20 mM Na-HEPES pH 7.4, 30 mM KOAc, 0.75 mM MgCl2, 0.1% Tween-20, 5% glycerol, 0.1 mg/mL BSA, 2 mM DTT; 25 C; 0.0125-409.6 nM protein. Conditions: tags: N-His6-TEV cleaved; C-SNAP kept, Cy3B-labelled; label: tethered on chip by stalled RNA polymerase.

With UCUCUUUGUAUCUGUCUCUU (ssRNA) [Ib_S1_P3E.1_K3.1_C3.1_H3.1_A3.1_[A6C]_F3.1_[A8G]_T3.1], the Kd turned out to be 81.8 nM.
Molecule UCUCUUUGUAGCAUUGUCUCUU (ssRNA) [Ic_S1_P5E.1_K5.1_C5.1_H5.1_A5.1_[T5G]_[T6C]_F5.1_[A10G]_T5.1] gave a Kd of 771 nM. This Kd lies about 9.4-fold higher than the previous one.
Molecule UCUCUUUGUACGGUAAUCUCUU (ssRNA) [Ic_S1_P5E.1_K5.1_C5.1_H5.1_A5.1_[T5C]_[T6G]_[A7G]_F5.1_[T9A]_T5.1] yielded a Kd of 16.8 nM.
Under UCUCUUUGUAAAUUUCUCUU (ssRNA) [Ic_S1_P3E.1_K3.1_C3.1_H3.1_A3.1_[T5A]_F3.1_[A8T]_T3.1] stands 16.9 nM.
Under UCUCUUUGUAUCAAUUUCUCUU (ssRNA) [Ic_S1_P5E.1_K5.1_C5.1_H5.1_A5.1_[T6C]_F5.1_[T8A]_[A10T]_T5.1] stands 85.2 nM; under UCUCUUUGUAUAUCGCUCUCUU (ssRNA) [Ic_S1_P5E.1_K5.1_C5.1_H5.1_A5.1_[T6A]_[A7T]_F5.1_[T8C]_[T9G]_[A10C]_T5.1], 27.4 nM; under UCUCUUUGUACAUGUGUCUCUU (ssRNA) [Ic_S1_P5E.1_K5.1_C5.1_H5.1_A5.1_[T5C]_[T6A]_[A7T]_F5.1_[T8G]_[A10G]_T5.1], 27.2 nM.
For UCUCUUUGUAAUCACGUCUCUU (ssRNA) [Ic_S1_P5E.1_K5.1_C5.1_H5.1_A5.1_[T5A]_[A7C]_F5.1_[T8A]_[T9C]_[A10G]_T5.1], binding was characterised by a dissociation constant (Kd) of 1250 nM. Against the preceding molecule, the Kd is about 46-fold higher.
The result for UCUCUUUGUACGUCUUUCUCUU (ssRNA) [Ic_S1_P5E.1_K5.1_C5.1_H5.1_A5.1_[T5C]_[T6G]_[A7T]_F5.1_[T8C]_[A10T]_T5.1] reads 425 nM.
The result for UCUCUUUGUAUGUGUCUCUU (ssRNA) [Ic_S1_P3E.1_K3.1_C3.1_H3.1_A3.1_[A6G]_F3.1_[A8G]_T3.1] reads 472 nM; that for UCUCUUUGUACAGUCUUCUCUU (ssRNA) [Ic_S1_P5E.1_K5.1_C5.1_H5.1_A5.1_[T5C]_[T6A]_[A7G]_F5.1_[T9C]_[A10T]_T5.1], 22.9 nM.
Consider UCUCUUUGUACCGACCUCUCUU (ssRNA) [Ic_S1_P5E.1_K5.1_C5.1_H5.1_A5.1_[T5C]_[T6C]_[A7G]_F5.1_[T8A]_[T9C]_[A10C]_T5.1], for which the Kd was more than 2300 nM.
Under UCUCUUUGUAACUCCAUCUCUU (ssRNA) [Ic_S1_P5E.1_K5.1_C5.1_H5.1_A5.1_[T5A]_[T6C]_[A7T]_F5.1_[T8C]_[T9C]_T5.1] stands 616 nM; under UCUCUUUGUACCCAACUCUCUU (ssRNA) [Ic_S1_P5E.1_K5.1_C5.1_H5.1_A5.1_[T5C]_[T6C]_[A7C]_F5.1_[T8A]_[T9A]_[A10C]_T5.1], 836 nM.
Under UCUCUUUGUAUUUCCAUCUCUU (ssRNA) [Ic_S1_P5E.1_K5.1_C5.1_H5.1_A5.1_[A7T]_F5.1_[T8C]_[T9C]_T5.1] stands 363 nM; under UCUCUUUGUACUCCACUCUCUU (ssRNA) [Ic_S1_P5E.1_K5.1_C5.1_H5.1_A5.1_[T5C]_[A7C]_F5.1_[T8C]_[T9A]_[A10C]_T5.1], 500 nM; under UCUCUUUGUACUAUACUCUCUU (ssRNA) [Ic_S1_P5E.1_K5.1_C5.1_H5.1_A5.1_[T5C]_F5.1_[T9A]_[A10C]_T5.1], 2.18 nM.
As for UCUCUUUGUAACCCCAUCUCUU (ssRNA) [Ic_S1_P5E.1_K5.1_C5.1_H5.1_A5.1_[T5A]_[T6C]_[A7C]_F5.1_[T8C]_[T9C]_T5.1], the equilibrium dissociation constant (Kd) came to 1280 nM. Against the preceding molecule, the Kd is about 590-fold higher.
For UCUCUUUGUAAUACUCUCUCUU (ssRNA) [Ic_S1_P5E.1_K5.1_C5.1_H5.1_A5.1_[T5A]_F5.1_[T8C]_[A10C]_T5.1], the affinity, expressed as Kd, was 642 nM.
Under UCUCUUUGUACAUAUUUCUCUU (ssRNA) [Ic_S1_P5E.1_K5.1_C5.1_H5.1_A5.1_[T5C]_[T6A]_[A7T]_F5.1_[T8A]_[A10T]_T5.1] stands 5.5 nM; under UCUCUUUGUAUAUGAUCUCUU (ssRNA) [Ic_S1_P4E.1_K4.1_C4.1_H4.1_A4.1_F4.1_[T8G]_T4.1], 15.4 nM; under UCUCUUUGUACCUUUUUCUCUU (ssRNA) [Ic_S1_P5E.1_K5.1_C5.1_H5.1_A5.1_[T5C]_[T6C]_[A7T]_F5.1_[A10T]_T5.1], 26.7 nM.
For UCUCUUUGUACAUUAAUCUCUU (ssRNA) [Ic_S1_P5E.1_K5.1_C5.1_H5.1_A5.1_[T5C]_[T6A]_[A7T]_F5.1_[T9A]_T5.1], the Kd was determined as 0.904 nM.
The result for UCUCUUUGUAUAAGCCUCUCUU (ssRNA) [Ic_S1_P5E.1_K5.1_C5.1_H5.1_A5.1_[T6A]_F5.1_[T8G]_[T9C]_[A10C]_T5.1] reads 794 nM; that for UCUCUUUGUACUCAGCUCUCUU (ssRNA) [Ic_S1_P5E.1_K5.1_C5.1_H5.1_A5.1_[T5C]_[A7C]_F5.1_[T8A]_[T9G]_[A10C]_T5.1], 945 nM.
UCUCUUUGUACUGUCAUCUCUU (ssRNA) [Ic_S1_P5E.1_K5.1_C5.1_H5.1_A5.1_[T5C]_[A7G]_F5.1_[T9C]_T5.1] showed a Kd of 116 nM.
Under UCUCUUUGUAUCACAUUCUCUU (ssRNA) [Ic_S1_P5E.1_K5.1_C5.1_H5.1_A5.1_[T6C]_F5.1_[T8C]_[T9A]_[A10T]_T5.1] stands 106 nM.
UCUCUUUGUACUAAAAUCUCUU (ssRNA) [Ic_S1_P5E.1_K5.1_C5.1_H5.1_A5.1_[T5C]_F5.1_[T8A]_[T9A]_T5.1] displayed a Kd of 58.8 nM.
Molecule UCUCUUUGUAUGUCACUCUCUU (ssRNA) [Ic_S1_P5E.1_K5.1_C5.1_H5.1_A5.1_[T6G]_[A7T]_F5.1_[T8C]_[T9A]_[A10C]_T5.1] came in with a Kd of 132 nM. This Kd lies about 2.2-fold higher than the previous one.
Under UCUCUUUGUAUAUAGUUCUCUU (ssRNA) [Ic_S1_P5E.1_K5.1_C5.1_H5.1_A5.1_[T6A]_[A7T]_F5.1_[T8A]_[T9G]_[A10T]_T5.1] stands 4.66 nM; under UCUCUUUGUAAAUUCUUCUCUU (ssRNA) [Ic_S1_P5E.1_K5.1_C5.1_H5.1_A5.1_[T5A]_[T6A]_[A7T]_F5.1_[T9C]_[A10T]_T5.1], 20.1 nM; under UCUCUUUGUAUCGGUAUCUCUU (ssRNA) [Ic_S1_P5E.1_K5.1_C5.1_H5.1_A5.1_[T6C]_[A7G]_F5.1_[T8G]_T5.1], 43.9 nM.
The result for UCUCUUUGUAUUUGUCUCUU (ssRNA) [Ic_S1_P3E.1_K3.1_C3.1_H3.1_A3.1_[A6T]_F3.1_[A8G]_T3.1] reads 106 nM; that for UCUCUUUGUAUACCGUUCUCUU (ssRNA) [Ic_S1_P5E.1_K5.1_C5.1_H5.1_A5.1_[T6A]_[A7C]_F5.1_[T8C]_[T9G]_[A10T]_T5.1], 334 nM.
In turn, UCUCUUUGUAAAUAAUUCUCUU (ssRNA) [Ic_S1_P5E.1_K5.1_C5.1_H5.1_A5.1_[T5A]_[T6A]_[A7T]_F5.1_[T8A]_[T9A]_[A10T]_T5.1] registered a Kd of 30.5 nM. This Kd lies about 11-fold lower than the previous one.
Under UCUCUUUGUACGAUCAUCUCUU (ssRNA) [Ic_S1_P5E.1_K5.1_C5.1_H5.1_A5.1_[T5C]_[T6G]_F5.1_[T9C]_T5.1] stands 88.9 nM.
The result for UCUCUUUGUAUCAGUGUCUCUU (ssRNA) [Ic_S1_P5E.1_K5.1_C5.1_H5.1_A5.1_[T6C]_F5.1_[T8G]_[A10G]_T5.1] reads 441 nM.
Under UCUCUUUGUAUAUGACUCUCUU (ssRNA) [Ic_S1_P5E.1_K5.1_C5.1_H5.1_A5.1_[T6A]_[A7T]_F5.1_[T8G]_[T9A]_[A10C]_T5.1] stands 16.1 nM; under UCUCUUUGUACGUCCCUCUCUU (ssRNA) [Ic_S1_P5E.1_K5.1_C5.1_H5.1_A5.1_[T5C]_[T6G]_[A7T]_F5.1_[T8C]_[T9C]_[A10C]_T5.1], 394 nM; under UCUCUUUGUAUCCCGGUCUCUU (ssRNA) [Ic_S1_P5E.1_K5.1_C5.1_H5.1_A5.1_[T6C]_[A7C]_F5.1_[T8C]_[T9G]_[A10G]_T5.1], more than 2300 nM.
Consider UCUCUUUGUAACACGGUCUCUU (ssRNA) [Ic_S1_P5E.1_K5.1_C5.1_H5.1_A5.1_[T5A]_[T6C]_F5.1_[T8C]_[T9G]_[A10G]_T5.1], for which the Kd was found to be 2070 nM.
Under UCUCUUUGUACUCUCGUCUCUU (ssRNA) [Ic_S1_P5E.1_K5.1_C5.1_H5.1_A5.1_[T5C]_[A7C]_F5.1_[T9C]_[A10G]_T5.1] stands 70.5 nM; under UCUCUUUGUAGCCCUUUCUCUU (ssRNA) [Ic_S1_P5E.1_K5.1_C5.1_H5.1_A5.1_[T5G]_[T6C]_[A7C]_F5.1_[T8C]_[A10T]_T5.1], more than 2300 nM.
Consider UCUCUUUGUAAUCCCAUCUCUU (ssRNA) [Ic_S1_P5E.1_K5.1_C5.1_H5.1_A5.1_[T5A]_[A7C]_F5.1_[T8C]_[T9C]_T5.1], for which the affinity, expressed as Kd, was 868 nM.
Take UCUCUUUGUAGCACUGUCUCUU (ssRNA) [Ic_S1_P5E.1_K5.1_C5.1_H5.1_A5.1_[T5G]_[T6C]_F5.1_[T8C]_[A10G]_T5.1]: the Kd was more than 2300 nM.
The result for UCUCUUUGUAAGUUCUUCUCUU (ssRNA) [Ic_S1_P5E.1_K5.1_C5.1_H5.1_A5.1_[T5A]_[T6G]_[A7T]_F5.1_[T9C]_[A10T]_T5.1] reads 388 nM.
